Source: the supplement of paper PMC6757056
± gives the standard deviation of the averaged measurements.

B1: library; a variant is named by its letters at N, in order (parent)
chain: GCUGUCACCGGUGCUUGGUACGUUAUAUUCAGCCGGUCUGAUGAGUCUNNNNNNAGACGAAACAGC

Experiments:
(6R,S)-folinic acid [1] = variants of: B1; test: normalized RNA/DNA level without ligand (relative to sTRSVctl = 100) (log10 (% of sTRSVctl)); HEK293T overexpressing SLC46A1; higher = less ribozyme self-cleavage, higher mRNA level; conditions: without (6R,S)-folinic acid; ligand present: no
Method in brief: (§1)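 RNA level was computed as RNA reads over DNA reads divided by a spiked-in non-cleaving sequence or by the top sequences, then scaled and log-transformed. Scaling was ×100 with log10, the top group was 25 sequences, and the threshold was ≥100 DNA reads. The reads came from HEK293T cells transfected at 4 µg per 6-well well with ribozyme switch library plasmids (mCherry, or eGFP in some ligand experiments). Total RNA was extracted with EDTA 72 h after transfection, with any ligand added 1 h before it.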

(6R,S)-folinic acid [2] = variants of: B1; test: normalized RNA/DNA level with ligand (relative to sTRSVctl = 100) (log10 (% of sTRSVctl)); HEK293T overexpressing SLC46A1; ligand concentration (+) RNA-Seq: 6 mM; higher = less ribozyme self-cleavage, higher mRNA level; conditions: with (6R,S)-folinic acid; ligand present: yes
Method in brief: as §1

Variant | normalized RNA/DNA level without ligand (log10) ((6R,S)-folinic acid [1]) | normalized RNA/DNA level with ligand (log10) ((6R,S)-folinic acid [2])
GCUGUCACCGGUGCUUGGUACGUUAUAUUCAGCCGGUCUGAUGAGUCUACCCGGAGACGAAACAGC [ACCCGG] | 2.01 ± 0.022 | 2.04 ± 0.041
GCUGUCACCGGUGCUUGGUACGUUAUAUUCAGCCGGUCUGAUGAGUCUACCCGCAGACGAAACAGC [ACCCGC] | 2.038 ± 0.02 | 2.03 ± 0.041
GCUGUCACCGGUGCUUGGUACGUUAUAUUCAGCCGGUCUGAUGAGUCUACCCGUAGACGAAACAGC [ACCCGU] | 2.0423 ± 0.0012 | 2.02 ± 0.0044
GCUGUCACCGGUGCUUGGUACGUUAUAUUCAGCCGGUCUGAUGAGUCUGCCCGAAGACGAAACAGC [GCCCGA] | 2.0343 ± 0.0013 | 2.04 ± 0.041
GCUGUCACCGGUGCUUGGUACGUUAUAUUCAGCCGGUCUGAUGAGUCUGCCCGGAGACGAAACAGC [GCCCGG] | 2.089 ± 0.005 | 2.02 ± 0.035
GCUGUCACCGGUGCUUGGUACGUUAUAUUCAGCCGGUCUGAUGAGUCUGCCCGCAGACGAAACAGC [GCCCGC] | 2.0838 ± 0.0006 | 2.08 ± 0.03
GCUGUCACCGGUGCUUGGUACGUUAUAUUCAGCCGGUCUGAUGAGUCUGCCCGUAGACGAAACAGC [GCCCGU] | 2.0126 ± 0.0014 | 2.007 ± 0.0028
GCUGUCACCGGUGCUUGGUACGUUAUAUUCAGCCGGUCUGAUGAGUCUACCCUCAGACGAAACAGC [ACCCUC] | 2.03 ± 0.031 | 2.02 ± 0.032
GCUGUCACCGGUGCUUGGUACGUUAUAUUCAGCCGGUCUGAUGAGUCUACCCUGAGACGAAACAGC [ACCCUG] | 2.006 ± 0.013 | 2.032 ± 0.013
GCUGUCACCGGUGCUUGGUACGUUAUAUUCAGCCGGUCUGAUGAGUCUACCCUUAGACGAAACAGC [ACCCUU] | 2.02 ± 0.027 | 2.03 ± 0.044
GCUGUCACCGGUGCUUGGUACGUUAUAUUCAGCCGGUCUGAUGAGUCUACCCUAAGACGAAACAGC [ACCCUA] | 2.018 ± 0.015 | 2.03 ± 0.022
GCUGUCACCGGUGCUUGGUACGUUAUAUUCAGCCGGUCUGAUGAGUCUCCCCCGAGACGAAACAGC [CCCCCG] | 2.05 ± 0.023 | 2 ± 0.0065
GCUGUCACCGGUGCUUGGUACGUUAUAUUCAGCCGGUCUGAUGAGUCUCCCCCUAGACGAAACAGC [CCCCCU] | 2.063 ± 0.017 | 2.01 ± 0.037
GCUGUCACCGGUGCUUGGUACGUUAUAUUCAGCCGGUCUGAUGAGUCUCCCCCCAGACGAAACAGC [CCCCCC] | 2.0694 ± 0.0015 | 2.02 ± 0.063
GCUGUCACCGGUGCUUGGUACGUUAUAUUCAGCCGGUCUGAUGAGUCUUCCCUCAGACGAAACAGC [UCCCUC] | 2.07 ± 0.041 | 2.053 ± 0.0051
GCUGUCACCGGUGCUUGGUACGUUAUAUUCAGCCGGUCUGAUGAGUCUUCCCUGAGACGAAACAGC [UCCCUG] | 1.919 ± 0.013 | 2.03 ± 0.039
GCUGUCACCGGUGCUUGGUACGUUAUAUUCAGCCGGUCUGAUGAGUCUUCCCUAAGACGAAACAGC [UCCCUA] | 2.007 ± 0.0055 | 2 ± 0.024
GCUGUCACCGGUGCUUGGUACGUUAUAUUCAGCCGGUCUGAUGAGUCUUCCCUUAGACGAAACAGC [UCCCUU] | 2.03 ± 0.026 | 2.006 ± 0.0086
GCUGUCACCGGUGCUUGGUACGUUAUAUUCAGCCGGUCUGAUGAGUCUACCCCAAGACGAAACAGC [ACCCCA] | 2.02 ± 0.011 | 2 ± 0.05
GCUGUCACCGGUGCUUGGUACGUUAUAUUCAGCCGGUCUGAUGAGUCUACCCCUAGACGAAACAGC [ACCCCU] | 1.997 ± 0.0056 | 1.98 ± 0.073
GCUGUCACCGGUGCUUGGUACGUUAUAUUCAGCCGGUCUGAUGAGUCUACCCCGAGACGAAACAGC [ACCCCG] | 1.998 ± 0.0083 | 1.99 ± 0.073

Variant | normalized RNA/DNA level without ligand (log10) ((6R,S)-folinic acid [1]) | normalized RNA/DNA level with ligand (log10) ((6R,S)-folinic acid [2])
GCUGUCACCGGUGCUUGGUACGUUAUAUUCAGCCGGUCUGAUGAGUCUACCCCCAGACGAAACAGC [ACCCCC] | 2.04 ± 0.016 | 2.002 ± 0.015
GCUGUCACCGGUGCUUGGUACGUUAUAUUCAGCCGGUCUGAUGAGUCUCCCCUUAGACGAAACAGC [CCCCUU] | 2.06 ± 0.023 | 2.05 ± 0.034
GCUGUCACCGGUGCUUGGUACGUUAUAUUCAGCCGGUCUGAUGAGUCUCCCCUCAGACGAAACAGC [CCCCUC] | 2.05 ± 0.023 | 1.99 ± 0.038
GCUGUCACCGGUGCUUGGUACGUUAUAUUCAGCCGGUCUGAUGAGUCUUCCCCGAGACGAAACAGC [UCCCCG] | 1.997 ± 0.008 | 2.041 ± 0.019
GCUGUCACCGGUGCUUGGUACGUUAUAUUCAGCCGGUCUGAUGAGUCUUCCCCCAGACGAAACAGC [UCCCCC] | 2.06 ± 0.033 | 2.063 ± 0.012
GCUGUCACCGGUGCUUGGUACGUUAUAUUCAGCCGGUCUGAUGAGUCUUCCCCUAGACGAAACAGC [UCCCCU] | 2.06 ± 0.025 | 2.04 ± 0.049
GCUGUCACCGGUGCUUGGUACGUUAUAUUCAGCCGGUCUGAUGAGUCUUCCCGCAGACGAAACAGC [UCCCGC] | 2.013 ± 0.015 | 1.99 ± 0.053
GCUGUCACCGGUGCUUGGUACGUUAUAUUCAGCCGGUCUGAUGAGUCUUCCCGAAGACGAAACAGC [UCCCGA] | 2.033 ± 0.008 | 2.07 ± 0.033
GCUGUCACCGGUGCUUGGUACGUUAUAUUCAGCCGGUCUGAUGAGUCUUCCCGUAGACGAAACAGC [UCCCGU] | 2.041 ± 0.013 | 2.04 ± 0.044
GCUGUCACCGGUGCUUGGUACGUUAUAUUCAGCCGGUCUGAUGAGUCUUCCCGGAGACGAAACAGC [UCCCGG] | 2.05 ± 0.018 | 2.05 ± 0.059
GCUGUCACCGGUGCUUGGUACGUUAUAUUCAGCCGGUCUGAUGAGUCUGCCCUGAGACGAAACAGC [GCCCUG] | 2.05 ± 0.023 | 2.04 ± 0.039
GCUGUCACCGGUGCUUGGUACGUUAUAUUCAGCCGGUCUGAUGAGUCUGCCCUAAGACGAAACAGC [GCCCUA] | 2.034 ± 0.015 | 2.05 ± 0.032
GCUGUCACCGGUGCUUGGUACGUUAUAUUCAGCCGGUCUGAUGAGUCUGCCCUCAGACGAAACAGC [GCCCUC] | 2.047 ± 0.015 | 2.03 ± 0.065
GCUGUCACCGGUGCUUGGUACGUUAUAUUCAGCCGGUCUGAUGAGUCUGCCCUUAGACGAAACAGC [GCCCUU] | 2.021 ± 0.0059 | 2.01 ± 0.044
GCUGUCACCGGUGCUUGGUACGUUAUAUUCAGCCGGUCUGAUGAGUCUCCCCGUAGACGAAACAGC [CCCCGU] | 2.05 ± 0.028 | 2.047 ± 0.01
GCUGUCACCGGUGCUUGGUACGUUAUAUUCAGCCGGUCUGAUGAGUCUCCCCGGAGACGAAACAGC [CCCCGG] | 2.083 ± 0.0038 | 2.06 ± 0.022
GCUGUCACCGGUGCUUGGUACGUUAUAUUCAGCCGGUCUGAUGAGUCUCCCCGCAGACGAAACAGC [CCCCGC] | 2.09 ± 0.0037 | 2.05 ± 0.034
GCUGUCACCGGUGCUUGGUACGUUAUAUUCAGCCGGUCUGAUGAGUCUGCCCCUAGACGAAACAGC [GCCCCU] | 2.0548 ± 0.00021 | 2.024 ± 0.011
GCUGUCACCGGUGCUUGGUACGUUAUAUUCAGCCGGUCUGAUGAGUCUGCCCCGAGACGAAACAGC [GCCCCG] | 2.041 ± 0.012 | 1.99 ± 0.034
GCUGUCACCGGUGCUUGGUACGUUAUAUUCAGCCGGUCUGAUGAGUCUGCCCCCAGACGAAACAGC [GCCCCC] | 2.03 ± 0.032 | 2.04 ± 0.048
